Measurements published in publication PMC3444267.
Each block holds one substance with its values, some of them ahead of it.

Legend:
Assay in all cases: semi-native SDS-PAGE with anti-HA immunoblot
[1] = target: BnGLP12.2:HA (Brassica napus)
[2] = target: BnGLP3.2:HA (Brassica napus)
[3] = target: BnGLP3.1:HA (Brassica napus)
[4] = target: BnGLP8:HA (Brassica napus)
[5] = target: BnGLP12.1:HA (Brassica napus)

Substance: BnGLP3.2:HA (natural protein)
stoichiometry N [2]: 6

Substance: BnGLP3.1:HA (natural protein)
stoichiometry N [3]: 6

Substance: BnGLP8:HA (natural protein)
stoichiometry N [4]: 6

Second part, the substance after the results:

stoichiometry N [1]: 6
Substance: BnGLP12.2:HA (natural protein)

stoichiometry N [5]: 6
Substance: BnGLP12.1:HA (natural protein)
